Test results reported in paper PMC3039672.

Target: partial heads (10am13am phage T4 heads that ejected most of their packaged DNA, keeping a ~8-kb piece) (bacteriophage T4) (UniProt P13334)
Chain of UniProt P13334 (P13334 whole entry, looked up): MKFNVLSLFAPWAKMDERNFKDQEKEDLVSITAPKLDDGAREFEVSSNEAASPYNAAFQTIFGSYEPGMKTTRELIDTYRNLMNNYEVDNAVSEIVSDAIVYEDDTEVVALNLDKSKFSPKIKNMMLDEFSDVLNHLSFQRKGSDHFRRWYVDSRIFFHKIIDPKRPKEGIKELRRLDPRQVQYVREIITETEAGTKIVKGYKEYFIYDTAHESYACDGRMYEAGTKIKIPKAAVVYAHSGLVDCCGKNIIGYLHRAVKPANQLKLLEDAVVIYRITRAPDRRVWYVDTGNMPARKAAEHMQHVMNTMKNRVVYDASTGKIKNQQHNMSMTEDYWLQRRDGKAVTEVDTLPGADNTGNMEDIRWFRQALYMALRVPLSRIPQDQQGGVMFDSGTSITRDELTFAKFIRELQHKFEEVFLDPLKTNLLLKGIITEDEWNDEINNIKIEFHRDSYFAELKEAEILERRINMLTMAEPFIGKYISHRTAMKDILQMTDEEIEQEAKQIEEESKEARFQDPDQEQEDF

single molecule optical tweezers: packaging rate of 10-kb DNA against 5 pN by head-gp17 complexes: 1100 bp/s
Substance: full-length gp17 (large terminase protein, packaging motor) (from UniProt P17312 1-610) (enzyme)
